Reference: article doi:10.1101/2022.05.23.492800 (2022)

Legend:
Test in all cases: multimer staining
[1] = biological target: T1, SARS-CoV-2 Spike protein peptide on HLA-A*23:01 (human)
T1 peptide: QYIKWPWYIW

[2] = biological target: T2, SARS-CoV-2 Spike protein peptide on HLA-A*24:02 (human)
T2 peptide: QYIKWPWYIW

[3] = biological target: T3, SARS-CoV-1 Spike protein peptide on HLA-A*24:02 (human)
T3 peptide: QYIKWPWYVW

Measured: binding result

B1: TCRQYI (TCR)
alpha TRAV20*01 TRAJ32*01 CDR3: CAALNYGGATNKLIF
beta TRBV4-3*01 TRBJ2-7*01 CDR3: CASSPSGGAYEQYF
recognises: all assays above
